47 sequences from the NTF2 design screens of Basanta et al. (2020) can be followed below.

This data set is described as follows: protease stability score; higher = more stable; yeast display proteolysis, trypsin and chymotrypsin.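 Further: log10 excess protease needed over predicted unfolded state with 0 meaning unfolded.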
“EEELEEQLHRLLQLIREGNEHKVKEQMDPNVKVVYGDKEYKGRDEVETYLEEVINHWRVNFRVKHITVKGDKVDMKAEASYTHNGRPVNRKLTINAEIHNGRFKTLEFKWDG”: the protease stability score stood at 0.214.

“DEQKEAEDIINTWREVLKDNDTDKARELADKHVRVVVGDKELHGREDFVRYFHEVAHRVDHIDIDVLDLTVHNGRIHFEADAVADVNGRKDTFVIRMVWQSQGDKHNMQEMHVP” returned a protease stability score of -0.09.

The sequence “DQEKFERMAHKANRALEQNDEETFDELADENARMIYGDKRYTGRERVREAVQEIDKRVDHVQVDRVNVHGERAQINAVFHFNGKTQRDNVNMRFSNGKLQEMRFDPDVIRNLEE” displayed a protease stability score of -0.131.

The sequence “DSEKYLKDLNSNLLRILQTNDEKKLRDLVDKDVKITVGDKSYHGREEFAKVLRTLLNEHDKWRVHYQSIHQHNGKLRAVIDLKAENNGQTLSRNLDITAEERNGEVHVKHAQIG” gave a protease stability score of 1.08.

In the case of “DHRAIHLVRENLDARRHNDSKKAREMADKDATFHIGDRFIHGMDSFVKTLTDENREMRIEIERMSYNDRPGRVEVKQDVRENHNGSPKRFTYHAEMHVQGDHVRTQTEHRTD”, the protease stability score is -0.281.

Sequence “DEEQMERVMQRVIKALQQGDQETVRKLGKPNGEVQAGDYRNKGPEAFVMAVDVAQKVGNKFEYKETRTKGGKMQTVVKVTVGGKTVEYEVEVVVEGGKAKEWYVRLDDDFVEQAKKS” showed a protease stability score of 0.514.

As for “DEKQKKDLLKQAVEMYLSGNSEEVRKLLKDDGEVEAGDQTYKGVEQVMKVVEQFKRYGVKLQMTDLKVDGDTVKVKAKLQNGGKTWEFEVTAQADGGKVDKITFKYSEEAKEDIEKG”, the protease stability score was -0.056.

The sequence “EEHLKHVVEELWKAMQTGDEDKIRRNADPNAHFSIGDKVIQGRERFAQDVRQTYDEIRVDIKIHRMNIQGEKVKVRFTFEQKVNGKPRSDENSAENTLHNGKVEEMNITIDPDKQRKFES” displayed a protease stability score of -0.43.

“DDHEKANKVVSKLVEANRTGDEKKFVDMADPNVQLNIGDQRVHGREQAEKFARDFHTRFDHLDVKIKDVDVQGEKLELDVKMKVHFDGRTHEINMRLELQRNNGRVKLVRLHIP”: the protease stability score came to 0.097.

In turn, “DEDQAKTIEELWRTNDFDTLATQADKDVHNHVGDKKIHGRTQHTQAQERIRRAVDHFDVKRVNIQGNKVDIDVVMEVNGKNVHMTVVITVHNGKIKHMSMRVRDEEVKKLFEEMEQ” registered a protease stability score of 0.527.

“DEELRRRLEKFFRDLRNGNESEAVKLVDPNARFNIGDTEYHGMHDYARELLRQRHKLNWHVRQVTIEAKNGHVNITMSVQFNVNGRPDSYTNTVRAVLHNGRVKEMSNRVPKDQLHKIKK” showed a protease stability score of 0.209.

In turn, “DEEDLKRLREMHKAVSRGDPRQIQENMDPNVRVQYGDKTIHGREHIASELITKMKHWRLDFKRYHATVTPNRVQVHIDYIERHNGKPHKNKNKAEAEVDNGKIKRYQQSSDG” had a protease stability score of -0.03.

In turn, “DEKENKKLATELNQNLQTGDPDKLARLADPNARAQYGETTYHGRSQIKTMWETLSRQVDNVELKHMHVQGNEVEVVLTFNVNGKEYELRITASFKNGRLKDLQIDPDEIQRAEK” gave a protease stability score of 0.4.

On to “DHETHMEKFFEDQQKIRNKGDEDKVRNLFDPNARATYGDKTYQGREQIDKFENDVLRRVDHVNVQLRNVRVHNGRADFDARVVFKVNGRHERNHIRITVEINNGRIVIQSVHYG”, for which the protease stability score turned out to be 0.141.

For “DQQTDAKEHAETVNKVLTHNDPNKLRELFDEDARMRVGDKEYRGQEQVDHVLKEIADRVDHVDVKLESVSLENGSVKVVIRAVFDDNGRKNDVHIDLVAVIDNGDLYIKEIRFE”, the protease stability score stood at 0.301.

“DERNREIVEEYFKAIKQGDEDRYKQMVDPNVHVEVGDRNYHGREHQARWMHRLRKHMRLVFNIRSIDVSGDKVKVKLDYEEEHNGEPRTNKMTVEFKFHNGKILKIKIQTRQ” displayed a protease stability score of 2.08.

The sequence “DDEAVRAMKRWMDALKTGDPDHLKNNIDPNANIDVGDKRVHGREQIMTMVEKELHEIKITITSINFEDHGDKAVVIINYIRDHNGRPQSNRATLEAEVHNGRIKELKMKDDK” displayed a protease stability score of 0.468.

As to “DEEDKKRLDTFDDNEDRGDRTKVRELADPNAKYEYGDNTVHGREDLEKMVHHLKNQLRIRVKSVEKRMHNGTLRASQREQQDHNGRPDDNSFDQDVHIHNGRIKQNVVEERK”, the protease stability score was -0.15.

Sequence “DEDANRELHKAMKHNDWDLLAKQMDKDVSKQVGDKTVHGRDRIQEDIKRLKTEIDHMEIEHVSARGDHLTADVHLVVNGQHVKFVIHIQFDNGRIKQIQWQVRDEDVEKQMKKLKG” returned a protease stability score of -0.074.

For the sequence “DDDNVRKYVELMHEGDNEQLVRLADPNVRLQVGDKQYDGREDFEHHLRQIHTQADHFQVQDYHFEGDKAVMDVVMTVNGHQFRFKIHVEVRNGEVKQVQWDFTDPNQRDRFRNNLS”, the protease stability score came out at 0.611.

In turn, “EKEVMDTLVKIVNEGNFEDLAKMADKDVQVRIGNKNLHGKEQLQKFMERFTRQADHIRVHRYQFSNGRFQFDFVIVVNGKRFRVTMHVEVSNGRIKKLVINVTDEDAEKVLREAYG” registered a protease stability score of 1.38.

Sequence “DHEQLKNLKELLEAVQTGDEDQVKELMDPNAKFEYGNKSFHGRESMESYLKKLENEARVTVRSVTVRVSNGTISADVHLIFEVNGQPITVDAKFEAELHNGRVKHLYVRMPEETMKEIQG” returned a protease stability score of -0.312.

In the case of “DDEEDKTLNQKAREALTDNDPDQMMNLFDKDANVDVGEKRVHGREQLRRYMQDLHRMVDHVQVDSVKVDGEKLEFKVTLQYNGRRLKVVFRINYHDGRAKNMHIEFTDEKTLKQFEK”, the protease stability score was determined as 0.882.

Consider “EESAIERLKEAMKAFDHGDEDEWRQQFDKNARVQIGDKSVRGRDNMAKQIKKEKEKMRVEVKLESVHVHNGHVTADADYKEQKNGRPTSSRFQLHATFKGDKFKNMVWHKDS”, for which the protease stability score was -0.422.

Turning to “DERHNKQWNKELIKIWTDGDHKKFSEMLDKDVQIQVGDKEYHGREEIVRQYKTLMDRADHFEVKRYEVKGNDITIIFTFQVNGRRDQVRVVFVIENGHVKKITMDKK”, the protease stability score is 1.42.

In turn, “EEELLQRATEFLHAQETNDPKRLKEQADPNARFRVGDKTIHGMDEYVRQLEQTEREMKVSLEIKHVTLTGDKADVEAEVTKDRNGRPDRFRVRYEFEARNGKFVDVRIQEDR” gave a protease stability score of 0.336.

In turn, “DHEARKVVKRFWEAWETGDPEELNKQVDPNVHVQIGDTRLKGRDDVVRHLLEERHEMRVDLDSMDVKATNGQVNARATARADVNGQPVTFSMEFRFKVRNGKITHIDWQFSDEDHRKRKG” registered a protease stability score of 0.81.

“DDDDMKLAEEFAQAISTGDHNRVEENADKDARFDIGDKVVNGNHQRATEVKKEQDDQKVSVDINSMDATGNKVVAEINVDINNNGHPETQEHILHFTQDNGKIRHMEVKDDQ” showed a protease stability score of -0.685.

On to “EEHIKEVLDRVREAWRKNNPDDLKRNFDPNARFNIGNKRYHGMEHFVEDVARLLHEIHVEIHYHHITFDGNEARFSYDAVFNVDGRPIRDSMSRRVILHNGKIVDMKVDVDPKELDKKLK”, for which the protease stability score is -0.093.

Regarding “DDEEAKRVAEEVIKAMQKGDEEHFDRLVDPDVRLNVGDKVLHGRRDLRRWVKEVADKADHVQVDDVKVNNGTAKIRFRIDINGQTEEVIMHIHVTNGEVKSMRVQRT”, the protease stability score was determined as 1.43.

“DEQKQRDFAHTYKDVFNTGDPDEQRKMVDPNARAQVGDNDFHGDEEFDKWAEERRDRVDHVEIRSMSVHGNKVSMDVDVVYDGRRVRFSMRMEYHNGRFKHFKVNPDSQRKLEG” registered a protease stability score of 0.615.

On to “EEEQQKVLEELFRVLQEGDEKRAIKLADPNAKFNVGDKQYNGMEEYARSVATEIRNIRVEIETMDARVQGDHVQVNIVVNYKINGQPFRMTIKVRANVHNGQVHELNMHVDEDQQRKLKT”, for which the protease stability score is 0.014.

Regarding “DSRELDEFIHKFAQVIRKGNPRDAMKNVDKDARAVVGNKHINGRDQFHKWIEDLNKTIDHFEIVHVEVEGDRALMDVQVNINGKTRRIRLTAHVHNGRFKDVRVDPENERKLNQ”, the protease stability score amounted to 0.011.

In turn, “DQRDQRKANEIIKTNDESKLAKQADKDARLVVGNKEYHGKEQVQHFADQLEKMFDHLEITHYDSHGENFNVVAVMDVNGQRVQYYWRFRVHNGQFKYIEFRARDEETQKTIHRLLG” came in with a protease stability score of 0.606.

With “DEEEKAEHVADEVRHALKRGDEDRLMNLMDENVRVEVGDKTIHGREEVRKELHRISKDFDHVDAKVKSIKVTNGNVIIIMDVKQNVNGRTRRFEVSMILDVKGDKARIQHIKND”, the protease stability score amounted to 1.11.

“DDEMKKVVSRFVEAEKQGNPEDLKRNADPNVKVQVGDKTVNGRDKWATDLHKRRRDIDVEREYKSVHLTGDHLTMDVEAVYNVNGTPHKMRVTLRVVAHNGKIKKMHVQLSEEELRRLDR” showed a protease stability score of 0.229.

As to “DRKTEKDAIERARTALQDGDPQQAFDLFDENAKIVVGDQEYHGREQVSTAVEEFRKEIDHFEVERVSVHNGHATIDARVEHNGRSDDVTFHVTVHNGQVREAQVRTK”, the protease stability score was -0.213.

“DEHANETVKRILRDIRHNNPHEIRKNMDPNAKVVIGDKTIHGREEAARQLKREMHEIRVEVKHIDMKVHDGRVNVNFDVVLDSNGNPQRQSYRMVVRVHNGTVHYLSKSDTR” displayed a protease stability score of -0.041.

As for “DHKDQSKMVKDLNRVMQHGDSKQMRSMVDENAEVQYGDNQVHGRDQIREMEKRIRRRVDKVKFDSVDVEGNKVRIQYVVNVNGQNIEQVLHVTFKNGKIKNQEYRVRDPRLEKQFKS”, the protease stability score turned out to be 0.237.

In turn, “DEEVAKRMAETWVKAVEKGDTDQVQKVYKPNVEWVAGDEKHQGVEVVKKMMQKVKKLGVEFQLRKRKVEGGTVEFHYDMKNGNDTVTFTVRIDAEGGRVDRVEVEFDEKAQKVVKKG” displayed a protease stability score of 0.183.

“EEHDERTMHRLVETNDWETISRNADKDVKFQVGNKSYHGKEEFTEVLRKITKRADHIEYRSFNSHNGRIDVDYVFVVNGKEVKVFVQIQVHNGRIKHMRMRATNPDQQQELVDQLS” registered a protease stability score of 1.44.

The sequence “DEDQLRNIAHKLNEVWQNGDPDEMKKLLDPNVKFRYGDKTVQGMNEYVTILREMVKRIDHAHVRDFTAHNGRIDIDIQFDVNGRTVSAKVSYVVDNGKVKRAKFDPKNMKKLQS” registered a protease stability score of 0.036.

Turning to “DDEQRKDLAHDFLHAWKKGDEKLFDNLVDENVSAQYGDKTYHGRESISTFVRNYKKRADHFRVHDMQLSNGSVRMDVEAEVNGVDVRVTFHVFFHNGRVKSLQQDFTDEDVKRRHES”, the protease stability score is 0.604.

The sequence “DSDEVRKFNEKVKTGNPKHLQDMFDENAKVQIGNKDFRGREHVQTVIDKIERDVDHKEIKRMEVKGDHFEIDAIYNINGHNIRMIIKIQVRNGKIQNMTVEFTNEEQQEIFEENVQ” registered a protease stability score of 0.423.

With “DEEKKDKASEMVRAEQKNNPDKVNELADKNAKFNIGDKRIHGREHLKKTIETENREARYDIDEVDVRAKNGKVDVKMSMRVRHNGRPDRFHVEQTVRFNNGKAQEVTRHKKK”, the protease stability score is -0.299.

“DEDDVDRVRNLIHALNKGNPDDVNNQADENVRFVIGDKTFHGKETLRTRIEEQKSHSRYQVDSVHAEARNGQVEVHVNMTMTENGQPRKNTYEIQARVHNGRVKDFRMTESR” returned a protease stability score of -0.336.

“DEEAQRLLEKAMKALEQNNPQQFVNLLDPNATMIVGDKVYHGRESARKALDDIRSTMRVEVKDVKASAQGDKVQARMRVILDHNGKPSDRTQNITVRVHNGKMTSVELKTDT” displayed a protease stability score of 0.88.
